Measurements as given in US20130059782.

Target: full-length TF his-tag modified protein in yeast-derived microvesicles (TT-173): mature hTF with Asn124Ala mutation and six histidines at the C-terminus

B1: activated coagulation Factor VII (purified commercial FVIIa) (protein)
chain: ANAFLEELRPGSLERECKEEQCSFEEAREIFKDAERTKLFWISYSDGDQCASSPCQNGGSCKDQLQSYICFCLPAFEGRNCETHKDDQLICVNENGGCEQYCSDHTGTKRSCRCHEGYSLLADGVSCTPTVEYPCGKIPILEKRNASKPQGRIVGGKVCPKGECPWQVLLLVNGAQLCGGTLINTIWVVSAAHCFDKIKNWRNLIAVLGEHDLSEHDGDEQSRRVAQVIIPSTYVPGTTNHDIALLRLHQPVVLTDHVVPLCLPERTFSERTLAFVRFSLVSGWGQLLDRGATALELMVLNVPRLMTQDCLQQSRKVGDSPNITEYMFCAGYSDGSKDSCKGDSGGPHATHYRGTWYLTGIVSWGQGCATVGHFGVYTRVSQYIEWLQKLMRSEPRPGVLLRAPFP
- amidolytic activity of the TF:FVIIa complex (chromogenic substrate S-2288), TT-173 with or without added PS: there was no appreciable differences in the amidolytic activity between TT-173 with or without PS at the three concentrations of TT-173 tested, and at both concentrations of FVIIa used, 50 nM (not shown) or 500 nM (FIG. 7)
